Reference: US8301398 (WALTER AND ELIZA HALL INSTITUTE OF MEDICAL RESEARCH, dated 2012)

B1: anti-insulin receptor monoclonal antibody 83-7 (whole antibody) (antibody, V domains shown)
VH: QVQLKESGPGLVAPSQSLSITCTVSGFPLTAYGVNWVRQPPGKGLEWLGMIWGDGNTDYNSALKSRLSISKDNSKSQVFLKMNSLQTDDTARYYCARDPYGSKPMDYWGQGTSVTVSS
VL: DIVMSQSPSSLVVSVGEKVTMSCKSSQSLLYSSNQKNFLAWYQQKPGQSPKLLIYWASTRESGVPDRFTGSGSGTDFTLTISSVKAEDLAVYYCQQYFRYRTFGGGTKLEIKR
notes: also called Mab 83-7
B2: IR485 (residues 1-485 of the insulin receptor) with enterokinase cleavage site and c-myc epitope tag (receptor)
chain: HLYPGEVCPGMDIRNNLTRLHELENCSVIEGHLQILLMFKTRPEDFRDLSFPKLIMITDYLLLFRVYGLESLKDLFPNLTVIRGSRLFFNYALVIFEMVHLKELGLYNLMNITRGSVRIEKNNELCYLATIDWSRILDSVEDNHIVLNKDDNEECGDICPGTAKGKTNCPATVINGQFVERCWTHSHCQKVCPTICKSHGCTAEGLCCHSECLGNCSQPDDPTKCVACRNFYLDGRCVETCPPPYYHFQDWRCVNFSFCQDLHHKCKNSRRQGCHQYVIHNNKCIPECPSGYTMNSSNLLCTPCLGPCPKVCHLLEGEKTIDSVTSAQELRGCTVINGSLIINIRGGNNLAAELEANLGLIEEISGYLKIRRSYALVSLSFFRKLRLIRGETLEIGNYSFYALDNQNLRQLWDWSKHNLTTTQGKLFFHYNPKLCLSEIHKMEEVSGTKGRQERNDIALKTNGDKASCENELLKFSYIRTSFDKISDDDDKEQKLISEEDLN
notes: also called IR485/myc; soluble IR485

Experiments:
[1] = biological target: B2; assay: sandwich ELISA, biotinylated 83-7 as developing antibody
[2] = biological target: the molecule itself; assay: gel filtration on Superdex 200 HR; monomeric on non-reduced SDS-PAGE
Excerpt: Further purification was effected by gel filtration on Superdex 200 HR (Pharmacia, Sweden) in TBSA, monitored at 280 nm.

Binder | binding result [1] | binding result [2]
B1 | binds | 
B2 |  | binds
